The target in the test is TARP γ-2 (rat) (UniProt Q71RJ2). Nature of the test: co-IP; GluA2 variants transfected into HEK293T cells stably expressing TARP γ-2; proteins extracted under mild detergent conditions; IP with an anti-γ-2 antibody, blot probed with polyclonal GluA2 antibody; amounts normalized to the input.
Sequence of TARP γ-2 (rat) (Q71RJ2 whole entry): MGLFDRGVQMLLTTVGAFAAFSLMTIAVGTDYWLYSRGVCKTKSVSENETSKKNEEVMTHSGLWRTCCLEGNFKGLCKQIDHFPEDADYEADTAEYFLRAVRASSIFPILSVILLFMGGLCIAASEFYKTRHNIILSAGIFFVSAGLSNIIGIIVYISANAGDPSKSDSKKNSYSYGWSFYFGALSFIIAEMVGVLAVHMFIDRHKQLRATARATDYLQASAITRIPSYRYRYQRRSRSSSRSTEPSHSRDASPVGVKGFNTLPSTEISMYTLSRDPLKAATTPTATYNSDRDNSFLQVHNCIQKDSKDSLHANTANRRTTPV

Sequence of GluA2i-ΔNTD (flip, R607) (P19491 other isoform, or with tags, fused parts or gaps, stated change not applied): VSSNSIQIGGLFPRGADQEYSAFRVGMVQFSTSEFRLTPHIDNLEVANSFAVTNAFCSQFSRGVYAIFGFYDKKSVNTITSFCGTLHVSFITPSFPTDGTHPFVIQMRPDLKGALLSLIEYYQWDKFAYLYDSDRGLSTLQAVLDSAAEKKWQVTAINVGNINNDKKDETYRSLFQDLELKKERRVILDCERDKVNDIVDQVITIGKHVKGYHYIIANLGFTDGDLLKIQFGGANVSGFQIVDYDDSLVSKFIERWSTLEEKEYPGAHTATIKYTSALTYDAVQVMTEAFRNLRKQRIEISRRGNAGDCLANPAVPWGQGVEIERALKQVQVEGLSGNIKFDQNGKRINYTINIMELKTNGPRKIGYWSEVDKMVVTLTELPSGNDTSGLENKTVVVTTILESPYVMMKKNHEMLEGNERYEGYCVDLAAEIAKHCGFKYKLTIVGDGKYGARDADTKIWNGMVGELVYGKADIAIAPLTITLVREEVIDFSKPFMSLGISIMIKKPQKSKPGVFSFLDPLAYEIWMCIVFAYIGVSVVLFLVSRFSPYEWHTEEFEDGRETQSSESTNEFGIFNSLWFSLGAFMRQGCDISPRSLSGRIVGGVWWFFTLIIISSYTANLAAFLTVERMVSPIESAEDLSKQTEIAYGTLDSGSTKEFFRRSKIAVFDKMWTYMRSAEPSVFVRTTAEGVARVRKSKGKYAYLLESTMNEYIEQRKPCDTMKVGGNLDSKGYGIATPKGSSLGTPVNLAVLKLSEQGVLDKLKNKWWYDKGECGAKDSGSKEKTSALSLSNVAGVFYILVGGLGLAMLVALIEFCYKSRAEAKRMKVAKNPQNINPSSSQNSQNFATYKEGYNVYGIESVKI
Sequence of GluA2o-R607 ΔNTD (flop Δ-NTD mutant) (P19491 other isoform, or with tags, fused parts or gaps, stated change not applied): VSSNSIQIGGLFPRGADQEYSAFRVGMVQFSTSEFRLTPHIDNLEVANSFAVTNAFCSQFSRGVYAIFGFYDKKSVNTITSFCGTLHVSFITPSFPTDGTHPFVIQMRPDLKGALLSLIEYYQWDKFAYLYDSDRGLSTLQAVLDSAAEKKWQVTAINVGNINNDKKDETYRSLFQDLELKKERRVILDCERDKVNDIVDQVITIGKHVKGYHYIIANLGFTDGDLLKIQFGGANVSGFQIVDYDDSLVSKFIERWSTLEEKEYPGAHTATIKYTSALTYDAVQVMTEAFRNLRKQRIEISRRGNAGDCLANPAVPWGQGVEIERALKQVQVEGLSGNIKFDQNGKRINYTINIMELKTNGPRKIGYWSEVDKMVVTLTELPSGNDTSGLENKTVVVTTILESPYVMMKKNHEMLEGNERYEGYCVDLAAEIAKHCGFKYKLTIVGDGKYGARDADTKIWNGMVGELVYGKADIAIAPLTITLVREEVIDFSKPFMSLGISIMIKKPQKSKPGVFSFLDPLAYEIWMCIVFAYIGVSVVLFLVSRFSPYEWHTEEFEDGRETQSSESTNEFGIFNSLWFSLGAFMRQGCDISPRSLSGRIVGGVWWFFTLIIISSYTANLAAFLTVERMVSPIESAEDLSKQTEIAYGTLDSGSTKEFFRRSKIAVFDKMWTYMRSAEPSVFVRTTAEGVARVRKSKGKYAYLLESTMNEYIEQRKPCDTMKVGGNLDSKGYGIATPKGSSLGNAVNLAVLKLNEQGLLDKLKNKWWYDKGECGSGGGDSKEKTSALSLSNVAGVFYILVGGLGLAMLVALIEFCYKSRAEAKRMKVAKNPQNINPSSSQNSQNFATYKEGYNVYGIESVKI

For “GluA2i-ΔNTD (flip, R607) (from UniProt P19491-2 22-883) (receptor)”, the fold reduction of coIP by the Q to R switch (ΔNTD R607 against ΔNTD Q607) worked out at 2.2 fold and the ratio of IPed GluA2i WT to GluA2i-ΔNTD, normalized to the input amounted to 2.9 fold.

As to “GluA2o-R607 ΔNTD (flop Δ-NTD mutant) (from UniProt P19491 22-883) (receptor)”, the fold less efficiently precipitated than the flip ΔNTD counterpart stood at 2.9 fold.

For the origin of these results see PMC4405707.
